Data set [1] addresses T1, GST-C/EBPβ-bZIP (rat) (UniProt P21272).
T1 sequence: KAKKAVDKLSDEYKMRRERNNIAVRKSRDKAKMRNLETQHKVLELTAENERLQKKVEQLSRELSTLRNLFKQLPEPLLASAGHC
Kind of data set: fluorescence anisotropy competition. As to conditions: 25 mM Tris-HCl pH 7.6, 75 mM NaCl, 150 mM KCl, 5 mM MgCl2, 0.1 mM DTT, 0.01% NP-40, room temperature, 20 min. For orientation: Fluorescence polarisation rises when a labelled molecule tumbles more slowly, as on binding a larger partner.

The target in data set [2] is T1, GST-C/EBPβ-bZIP (rat). Nature of the data set: fluorescence anisotropy. As to conditions: 25 mM Tris-HCl pH 7.6, 75 mM NaCl, 150 mM KCl, 5 mM MgCl2, 0.1 mM DTT, 0.01% NP-40, room temperature, 20 min.

pKd, pKi: −log10 of the molar value.

Regarding “CCCTGATTGCGCAATAGGCTC (double strand) [Consensus C/EBPβ competitor]”, the pKi – broadly, the negative decadic logarithm of the Ki, by convention in mol/L – with GST-C/EBPβ-bZIP (rat) [1] (vs 15 nM BS1 probe, 125 nM protein) is 7.57. “CCCTGATTGCAAAATAGGCTC (double strand) [BS2 competitor]” gave a pKi with GST-C/EBPβ-bZIP (rat) [1] of 7.18.

Turning to “CCCTGCTTACACAATAGGCTC (double strand) [BS1 competitor]”, in the data set with GST-C/EBPβ-bZIP (rat) [1], the negative-log Ki (pKi) is 7.08. In the case of “TTTGGCTTACACAATTGCTTT (double strand) [BS1 probe]”, the pKd (in general, the negative decadic logarithm of the Kd, by convention in mol/L) with GST-C/EBPβ-bZIP (rat) [2] was 7.21. “CCCTGCTTGCATAACAGGCTC (double strand) [HPV18 BS2L competitor]” gave a pKi with GST-C/EBPβ-bZIP (rat) [1] of 6.81.

For the origin of these results see article PMC6433916.
